Experimental data: publication PMC7758071
Where “and” joins values, the source holds several entries; their conditions need not be identical. Equal values may be shown once.

Molecular target: Chinese hamster BiP, wild type, with an N-terminal His6-tag (UK173) (Chinese hamster) (UniProt G3I8R9)
Experiment: SEC; 40 µM BiP with 1 mM ADP, 20 min at 24°C; SEC-3 HPLC column, 50 mM HEPES-KOH pH 7.4, 150 mM KCl, 10 mM MgCl2, 26°C; A230

With “Chinese hamster BiP, wild type, with an N-terminal His6-tag (UK173) (from UniProt G3I8R9 19-654) (natural protein)” the stoichiometry N was 2 and 3.
